Laboratory results reported in US20150086580A1.

Experiments:
[1] = biological target: H77c core-E1ΔHVR1E2 HCVpp (HCV E1E2 without HVR1) (Hepatitis C virus genotype 1a, isolate H77C) (UniProt P27958); assay: binding affinity to HCVpp (method not given)
[2] = biological target: H77c core-E1E2 HCVpp (HCV E1E2 with HVR1) (Hepatitis C virus genotype 1a, isolate H77C); assay: binding affinity to HCVpp (method not given)

| Substance | Kd [1] [nM] | Kd [2] [nM] |
| --- | --- | --- |
| CBH-4D (antibody) | 0.48 | 0.84 |
| CBH-4G (antibody) | 5.29 | 5.43 |
| CBH-5 (antibody) | 0.56 | 4 |
| CBH-7 (antibody) | 0.08 | 0.24 |
| CBH-23 (antibody) | 0.09 | 0.17 |
